The values that follow come from article PMC8833744, “Strategic Decoy Peptides Interfere with MSI1/AGO2 Interaction to Elicit Tumor Suppression Effects” (Cancers, 2022).

The experiment deals with recombinant His-tagged AGO2 (UniProt Q9UKV8). The experiment can be described thus: SPR; Biacore T200; His-AGO2 immobilised on a CM5 chip by amine coupling (~7000 RU); peptides 20 to 1280 nM in HBS-P (10 mM HEPES, 150 mM NaCl, 0.005% T20, pH 7.4), 30 µL/min; Langmuir 1:1 model.
Sequence of recombinant His-tagged AGO2 (Q9UKV8 whole entry): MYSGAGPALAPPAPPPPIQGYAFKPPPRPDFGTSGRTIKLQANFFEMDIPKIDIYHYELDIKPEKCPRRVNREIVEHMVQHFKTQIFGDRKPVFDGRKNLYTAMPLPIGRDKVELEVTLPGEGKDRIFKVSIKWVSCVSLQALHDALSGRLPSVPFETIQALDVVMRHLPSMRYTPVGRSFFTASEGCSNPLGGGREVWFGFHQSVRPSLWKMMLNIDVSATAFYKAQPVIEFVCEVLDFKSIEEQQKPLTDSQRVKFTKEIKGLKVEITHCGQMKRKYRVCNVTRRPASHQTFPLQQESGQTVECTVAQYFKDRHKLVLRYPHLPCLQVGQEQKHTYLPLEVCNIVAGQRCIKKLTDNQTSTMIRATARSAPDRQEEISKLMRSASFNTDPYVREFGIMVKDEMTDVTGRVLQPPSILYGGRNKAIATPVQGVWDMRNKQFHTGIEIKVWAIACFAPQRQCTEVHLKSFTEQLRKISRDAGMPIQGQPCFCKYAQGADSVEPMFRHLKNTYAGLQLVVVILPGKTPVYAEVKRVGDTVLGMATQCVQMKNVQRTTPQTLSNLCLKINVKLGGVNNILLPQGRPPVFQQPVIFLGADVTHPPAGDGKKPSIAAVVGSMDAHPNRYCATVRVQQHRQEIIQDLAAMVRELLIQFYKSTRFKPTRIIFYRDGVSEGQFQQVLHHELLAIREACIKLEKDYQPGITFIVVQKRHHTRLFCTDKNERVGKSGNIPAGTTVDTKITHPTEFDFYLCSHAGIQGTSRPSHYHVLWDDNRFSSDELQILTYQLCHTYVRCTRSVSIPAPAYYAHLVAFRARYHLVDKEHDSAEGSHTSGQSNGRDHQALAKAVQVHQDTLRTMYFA

Regarding “negative control peptide (CP) as used in the SPR”, the Kd worked out at 107 µM.

The Kd is the constant that tells how readily two partners part at equilibrium.
